Measured values as given in patent publication US20220290200A1, “GENETICALLY MODIFIED HOST CELLS PRODUCING GLYCOSYLATED CANNABINOIDS” (OCTARINE BIO IVS, priority 2019, published 2022).

Legend:
[1] = In vitro glycosyl transferase performance, purified enzymes, % conversion of cannabinoids to cannabinoid glycosides; type: biochemical; settings: for Conversion % (CBD to the glycoside): acceptor CBD; for % conversion of CBD to OB9 (CBD-1′-O-β-D-xyloside): Table 26; for % conversion of CBDV to OB24 (CBDV-1′-O-β-D-glucoside): Table 33; for % conversion of CBDA to OB31 (CBDA-1′-O-β-D-glucoside): Table 37; for % conversion, CBG to OB33 (CBG-1′-O-β-D-glucosyl-3′-O-β-D-glucoside): product OB33; for % conversion, CBN to OB23 (CBN-1′-O-β-D-di-glucoside): substrate CBN, product OB23; for % conversion, THC to OB20 (THC-1′-O-β-D-glucoside): substrate THC, product OB20; for % conversion, 11-nor-9-carboxy-THC to OB41 (11-nor-9-carboxy-THC-1′-O-β-D-glucoside): substrate 11-nor-9-carboxy-THC, product OB41
Protocol: For in vitro studies of glycosyl transferase performance in glycosylating cannabinoids, purified Glycosyl transferases were prepared as follows:
5 mL of 2× concentrated LB medium+Ampicillin (50 μg/m L) was inoculated with E. coli XJb (DE3) strains expressing a glycosyl transferase of interest and incubated overnight at 30° C. with shaking. The following day, cell cultures were transferred into 500 mL of 2× concentrated LB medium+Ampicillin (50 μg/mL) and incubated overnight at 30° C. with shaking. The following day, the cell cultures were transferred to 1 L of 2× concentrated LB medium+Ampicillin (50 μg/mL)+3 mM arabinose+0.1 mM IPTG. Cells were incubated for 24 h at 20° C. with shaking. The following day, the cells were collected by centrifugation at 46500×g for 10 mins at 4° C. Cells were resuspended in 20 mL ice-cold GT buffer (50 mM Tris-HCl pH7.4+1 mM phenylmethanesulfonyl fluoride+1 cOmplete™, mini, EDTA-free Protease Inhibitor Cocktail tablet (Roche)). The resuspended material was transferred to a 50 mL falcon tube and kept at −80° C. for at least 15 mins. Falcon tubes were then thawed at room temperature, as the tubes were thawing the following reagents were added; 2.6 mM MgCl2, 1 mM CaCl2, 250 μL of a 1.4 mg/ml DNase solution (Sigma) dissolved in MilliQ water. Tubes were gently inverted to mix then were incubated for 5 mins at 37° C. Binding buffer was then added to the tubes (50 mM Tris-HCl pH7.4, 10 mM imidazole, 500 mM NaCl. 11.25 mL MilliQ water) and the pH adjusted to 7.4 with HCl. The mix was centrifuged at 15550×g for 15 mins at 4° C., the supernatant transferred to a fresh 50 mL falcon tubes and centrifuged again to remove any remaining cellular debris at 48400×g for 20 minutes at 4° C. While the enzyme prep was centrifuging, 3 mL of HIS-Select (available from Sigma P6611) column material was added to a fresh 50 mL tube and washed by adding MilliQ water up to 50 mL, centrifuging at 2000×g for 2 mins and discarding the supernatant. This washing step was repeated. Finally, MilliQ water was added to the HIS-Select material to an approximate 50% volume. Collected supernatant from the centrifuged enzyme preparation was transferred to the tube containing the HIS-Select material through a Miracloth (available from Merck Millipore), and then incubated at 4° C. with gently shaking by inversion for 2 h. After 2 h the mix was centrifuged at 2000×g for 4 minutes at 4° C. and the supernatant discarded. The remaining HIS-Select material was washed twice with 1× binding buffer (50 mM Tris-HCl, 0.5M NaCl, 10 mM Imidazole, pH 7.4) with centrifugation at 2000×g for 4 minutes at 4° C. The HIS-Select material was resuspended in 5 mL 1× binding buffer and transferred to a Poly-Prep®Chromatography Column (available from BioRad, 7311550). The HIS-Select material was kept at 4° C. and washed twice with 1× binding buffer by filling up the column and allowing it to drip through. Finally, purified Glycosyl transferases were eluted from the HIS-Select material by adding 7.5 mL of elution buffer (50 mM Tris-HCl, 500 mM Imidazole, pH7.4) and collecting the flow through. Enzymes were used immediately in in vitro enzyme assays or stored at −20° C. in 50% glycerol until needed.
In vitro conversion of various cannabinoids to cannabinoid glycosides was carried out according to table 21. Alkaline phosphatase was provided by New England Biolabs (M0371S). Cannabinoids were dissolved in methanol. The UDP-sugar (e.g. UDP-glucose) was provided by a commercial supplier (e.g. Sigma) or produced by in vitro enzymatic conversion from a commercially available UDP-sugar as shown in Example 21.
The reaction mixture was scaled up or down as required. The reaction mixture was incubated without shaking at 30° C. for 24 hours. Extraction and analysis were performed as described above for this example. […]

[2] = In vitro enzymatic cascade converting sucrose and CBD to CBD glycosides; type: biochemical; settings: enzymes added: GmSuSy
Description: In the previous examples, in vitro glycosyl transferase assays required the addition of an “activated” sugar (e.g. UDP-glucose), which is typically an extremely expensive reagent, furthermore, other activated sugars e.g. UDP-rhamnose are not available commercially and must be custom synthesized at high-cost and difficulty. […] To facilitate the low-cost production of cannabinoid glycosides not only with glucose, but with alternative sugars, an enzymatic cascade was set up to convert cannabinoids and the simple sugar sucrose into various cannabinoid glycosides. The cascade is divided into 3 steps, in step 1 sucrose and uridine diphosphate (UDP) is converted to UDP-glucose by GmSuSy (SEQ ID NO: 209, 210), additionally generating fructose as a bi-product. In step 2, UDP-glucose is interconverted to alternative UDP-sugars using a range of enzymes. For example, conversion of UDP-glucose to UDP-galactose by BsGa/E, multiple enzymes can also be used to produce UDP-sugars via other UDP-sugar intermediates. For example, conversion of UDP-glucose to UDP-glucuronic acid by AtUGDH1 combined with conversion of UDP-glucuronic acid to UDP-xylose by AtUXS3. In step 3, glycosyl transferases convert the activated sugar and a cannabinoid acceptor to the corresponding cannabinoid glycoside. For example, conversion of UDP-rhamnose and CBD to CBD-1′-O-β-D-rhamnoside (OB13) by Cs73Y (SEQ ID NO: 157, 158).
Enzymes were purified and the in vitro assay performed as described in Example 13 and the reaction mixture set up as shown in table 57. Enzymes and co-factors were added as required for each individual reaction. Samples were extracted and analyzed as stated above.

[3] = substrate CBG, glycosyl transferase in vitro

Molecule | % conversion of CBD to OB9 (CBD-1′-O-β-D-xyloside) ([1]; glycosyl transferase in vitro) [%] | % conversion of CBDV to OB24 (CBDV-1′-O-β-D-glucoside) ([1]; glycosyl transferase in vitro) [%] | % conversion of CBDA to OB31 (CBDA-1′-O-β-D-glucoside) ([1]; glycosyl transferase in vitro) [%] | % conversion, CBG to OB33 (CBG-1′-O-β-D-glucosyl-3′-O-β-D-glucoside) [1, 3] [%] | % conversion, CBN to OB23 (CBN-1′-O-β-D-di-glucoside) ([1]; glycosyl transferase in vitro) [%] | % conversion, THC to OB20 (THC-1′-O-β-D-glucoside) ([1]; glycosyl transferase in vitro) [%] | % conversion, 11-nor-9-carboxy-THC to OB41 (11-nor-9-carboxy-THC-1′-O-β-D-glucoside) ([1]; glycosyl transferase in vitro) [%] | also measured
C=C(C)[C@@H]1CCC(C)=C[C@H]1c1c(O[C@@H]2OC[C@@H](O)[C@H](O)[C@H]2O)cc(CCCCC)cc1O[C@@H]1OC[C@@H](O)[C@H](O)[C@H]1O [OB10, CBD-1′-O-β-D-xylosyl-3′-O-β-D-xyloside] |  |  |  |  |  |  |  | Conversion % (CBD to the glycoside) ([1]; UDP-Xylose, enzyme PL-214(Cs73Y_GA)): 97.4%; % Conversion of CBD and sucrose to CBD glycoside ([2]; AtUGDH1, AtUXS3, Cs73Y): 72.3%
C=C(C)C1CCC(C)=CC1c1c(O)cc(CCCCC)cc1OC1OC(C)C(O)C(O)C1O [OB13, CBD-1′-O-α-L-rhamnoside] |  |  |  |  |  |  |  | Conversion % (CBD to the glycoside) ([1]; UDP-Rhamnose, enzyme PL-342(Cp73B_GA)): 5.7%; % Conversion of CBD and sucrose to CBD glycoside ([2]; AtRHM2, Cs73Y): 15.2%
PL-182(Ha88B_2_GA) (protein) MESSTVVMYPSPGIGHLVSMVELGKLIHTHHPSLSVIILILTAPYETGATGKYINTVSATTPAITFHHLPAIALPPDFSSEFIDLAFGLPELYNSVVHNTLVAISQKSTIKAVILDFFSNAAFQVSTNLSLPTYYFFTSGTFGLCAFLYLTTLHKTTSKSIKDLNTLLDFPGVPPIHSSHMPTAIFDRESNSYKNFMKTSNNMAKCSGIIVNSFLELEERAVATLRDGKCITDGPTPPIYFIGPLIASGSQVDPNENECLKWLKTQPSKSVVFLCFGSMGVFEKEQLKEIAVGLERSGQRFLWVVRNPPLESSSGAKEFELDDILPEGFLTRTKDKGLVVKNWAPQPAILGHESVGGFVSHCGWNSSLEAVVSGVPMVAWPLYAEQQMNRVYLVEEIKVALWLRMSADGFVGAEAVEETVRKLMEGEEGRAVREQILEMSGGAKAAVEDGGSSRLDFLKLTRPWTDQ | 9.6 | 89.0 | 15.5 | 26.5 | 68.0 | 80.3 |  | % conversion of CBD to OB1 (CBD-1′-O-β-D-glucoside) ([1]; glycosyl transferase in vitro, Table 24): 50.0%; % conversion, CBG to OB32 (CBG-1′-O-β-D-glucoside) ([1]; substrate CBG, product OB32, glycosyl transferase in vitro): 82.9%
PL-214(Cs73Y_GA) (protein) MGSEGRQLHIFMFPFMAHGHMIPIVDMAKLFASRGIKITIVTTPLNSISISKSLHNCSPNSLIQLLILKFPAAEAGLPDGCENADSIPSMDLLPKFFEAVSLLQPPFEEALHNNRPDCLISDMFFPWTNDVADRVGIPRLIFHGTSCFSLCSSEFMRLHKPYQHVSSDTEPFTIPYLPGDIKLTKMKLPIFVRENSENEFSKFITKVKESESFCYGVVVNSFYELEAEYVDCYKDVLGRKTWTIGPLSLTNTKTQEITLRGRESAIDEHECLKWLDSQKPNSVVYVCFGSLAKFNSAQLKEIAIGLEASGKKFIWVVRKGKGEEEEEEQNWLPEGYEERMEGTGLIIRGWAPQVLILDHPSVGGFVTHCGWNSTLEGVAAGVPMVTWPVGAEQFYNEKLVTEVLKTGVGVGVQKWAPGVGDFIESEAVEKAIRRIMEKEGEEMRNRAIELGKKAKWAVGEEGSSYSNLDALIEELKSLAF | 6.9 |  | 98.6 | 100.0 | 98.6 | 29.5 | 2.0 | % conversion of CBD to OB13 (CBD-1′-O-α-L- rhamnoside) ([1]; glycosyl transferase in vitro, Table 25): 4.4%; % conversion of CBD to OB6 (CBD-1′-O-β-D-glucosyl-3′-O-β-D-glucoside) ([1]; glycosyl transferase in vitro, Table 27): 95.8%; % conversion of CBD to OB10 (CBD-1′-O-β-D-xylosyl-3′-O-β-D-xyloside) ([1]; glycosyl transferase in vitro, Table 28): 98.5%; % conversion of CBD to OB7 (CBD-1′-O-β-D-tri-glucoside) ([1]; glycosyl transferase in vitro, Table 29): 27.3%; % conversion of CBD to OB8 (CBD-1′-O-β-D-glucosyl-3′-O-β-D-di-glucoside) ([1]; glycosyl transferase in vitro, Table 30): 12.3%; % conversion of CBDV to OB25 (CBDV-1′-O-β-O-glucosyl-3′-O-β-D-glucoside) ([1]; glycosyl transferase in vitro, Table 34): 91.0%
PL-28(At72B1_GA) (protein, UniProt Q9M156 1-480, looked up) UDP-glycosyltransferase 72B1: MEESKTPHVAIIPSPGMGHLIPLVEFAKRLVHLHGLTVTFVIAGEGPPSKAQRTVLDSLPSSISSVFLPPVDLTDLSSSTRIESRISLTVTRSNPELRKVFDSFVEGGRLPTALVVDLFGTDAFDVAVEFHVPPYIFYPTTANVLSFFLHLPKLDETVSCEFRELTEPLMLPGCVPVAGKDFLDPAQDRKDDAYKWLLHNTKRYKEAEGILVNTFFELEPNAIKALQEPGLDKPPVYPVGPLVNIGKQEAKQTEESECLKWLDNQPLGSVLYVSFGSGGTLTCEQLNELALGLADSEQRFLWVIRSPSGIANSSYFDSHSQTDPLTFLPPGFLERTKKRGFVIPFWAPQAQVLAHPSTGGFLTHCGWNSTLESVVSGIPLIAWPLYAEQKMNAVLLSEDIRAALRPRAGDDGLVRREEVARVVKGLMEGEEGKGVRNKMKELKEAACRVLKDDGTSTKALSLVALKWKAHKKELEQNGNH |  | 9.9 |  |  |  |  | 0.9 | 
